Laboratory results published in the Human Domainome abundance scans (Beltran et al. 2025).

B1: Protein S100-G, residues 1 to 79; numbered along this chain, P02633 (parent)
chain: MSAKKSPEELKGIFEKYAAKEGDPNQLSKEELKLLLQTEFPSLLKGPSTLDELFEELDKNGDGEVSFEEFQVLVKKISQ

Variants of: B1
Assay: abundance fitness (aPCA) (normalised: wild type 0, dead -1); higher = more abundant; growth selection in yeast, the domain comes from the species named
Conditions: Bos taurus

Abundance fitness: each site, then its substitutions
D23: P -0.139 | N -0.013 | K -0.157 | M -0.104 | E -0.053 | F -0.079 | S -0.036 | A -0.009 | T 0.005 | Q -0.046 | R -0.043 | W -0.254 | V -0.065 | Y -0.081 | L -0.034 | G -0.091 | H -0.074 | C -0.064
A18: I -0.248 | G -0.077 | F -0.367 | T -0.15 | K -0.224 | L -0.242 | R -0.161 | H -0.195 | W -0.516 | M -0.161 | V -0.115 | Y -0.424 | S -0.055 | P -0.968 | Q -0.248 | N -0.362
G22: L -0.319 | S -0.114 | E -0.17 | Y -0.204 | V -0.29 | K -0.037 | T -0.22 | D -0.167 | C -0.264 | P -0.19 | H -0.103 | I -0.291 | F -0.431 | Q -0.231 | R -0.013 | N -0.147 | W -0.547 | M -0.19
N25: H 0.02 | L 0.081 | E -0.012 | R -0.069 | G -0.021 | F 0.027 | Q -0.079 | M -0.083 | S -0.027 | W -0.303 | T -0.006 | C -0.014 | D -0.052 | A 0.014 | Y -0.067 | V -0.066 | I 0.024 | K -0.059 | P -0.077
K20: A -0.119 | C -0.263 | Y -0.112 | L -0.067 | V -0.077 | G -0.01 | D -0.05 | N -0.012 | Q 0.04 | F -0.159 | W -0.181 | M 0.053 | I -0.098 | R 0.012 | S -0.088 | E -0.119
Q26: K -0.05 | W 0.037 | H -0.075 | V -0.081 | R 0.054 | G -0.031 | F -0.043 | D -0.155 | E 0.012 | Y 0.021 | N -0.048 | P -0.523 | L 0.006 | C -0.082 | S 0.042 | M 0.002 | A -0.062 | I 0.003
P24: S 0.06 | C 0.029 | M -0.066 | K 0.046 | V -0.009 | G -0.031 | D -0.125 | Y -0.075 | L -0.113 | H -0.031 | R -0.007 | F -0.197 | Q 0.019 | A -0.093 | I 0.024 | W -0.219 | E -0.061
A19: L 0.02 | K 0.048 | G 0.058 | T 0.143 | D -0.034 | P -0.132 | Q 0.028 | M -0.015 | F -0.057 | V -0.062 | I -0.018 | H -0.013 | N -0.017 | C -0.009 | S 0.007 | W -0.111 | R -0.073
L27: M -0.054 | A -0.137 | D -0.855 | N -0.681 | F -0.48 | C 0.006 | K -0.844 | E -1.04 | H -0.751 | G -0.786 | P -0.846 | I 0.105
E21: Q -0.031 | W -0.236 | N 0.039 | G -0.034 | Y -0.058 | I -0.027 | H -0.014 | F 0.085 | T -0.082 | R -0.104 | P -0.35 | C 0.011 | D 0.074 | V -0.057 | S -0.085 | A 0.003
